The values that follow come from publication PMC11014985, “TCTP regulates genotoxic stress and tumorigenicity via intercellular vesicular signaling”.

Series [1] has as its target T1, TCTP (UniProt P13693 1-172).
T1 sequence: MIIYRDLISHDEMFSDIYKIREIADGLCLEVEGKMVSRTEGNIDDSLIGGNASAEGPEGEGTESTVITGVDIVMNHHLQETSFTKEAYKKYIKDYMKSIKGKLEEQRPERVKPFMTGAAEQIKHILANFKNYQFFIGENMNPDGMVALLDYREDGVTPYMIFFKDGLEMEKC
The experiment in a line: EMSA; 500 nM TCTP, 50 nM RNA; ATP or AMP-PNP; EMSA: RNA01 at pH 7.5, 6% native PAGE at 4 C; let-7c-5p 50 nM, proteins preincubated 20 min then 25 min on ice, ATP or AMP-PNP (5 mM), NativePAGE 3-12% Bis-Tris. Particulars: protein: recombinant; single strand. (In general: In EMSA bound probe runs differently from free probe, usually more slowly.)

The target in series [2] is DDX3-WT (human, UniProt O00571 1-662). In words: EMSA; 300 nM DDX3, 50 nM RNA; ATP or AMP-PNP (nucleotide not specified for outcome); EMSA: RNA01 at pH 7.5, 6% native PAGE at 4 C; let-7c-5p 50 nM, proteins preincubated 20 min then 25 min on ice, ATP or AMP-PNP (5 mM), NativePAGE 3-12% Bis-Tris. To be noted: protein: recombinant; single strand.
The target of series [3] is T1, TCTP. The experiment in a line: EMSA; 50 nM RNA, increasing TCTP; pH 7.5; EMSA: RNA01 at pH 7.5, 6% native PAGE at 4 C; let-7c-5p 50 nM, proteins preincubated 20 min then 25 min on ice, ATP or AMP-PNP (5 mM), NativePAGE 3-12% Bis-Tris. To be noted: protein: recombinant; label: 5'-Cy5; single strand.
Series [4] deals with Ded1 (DEAD-box helicase) (yeast, UniProt P06634 1-604). In words: EMSA; 50 nM RNA; positive control; AMP-PNP; EMSA: RNA01 at pH 7.5, 6% native PAGE at 4 C; let-7c-5p 50 nM, proteins preincubated 20 min then 25 min on ice, ATP or AMP-PNP (5 mM), NativePAGE 3-12% Bis-Tris. Particulars: protein: recombinant; label: 5'-Cy5; single strand.
Sequence of Ded1 (DEAD-box helicase) (P06634 whole entry): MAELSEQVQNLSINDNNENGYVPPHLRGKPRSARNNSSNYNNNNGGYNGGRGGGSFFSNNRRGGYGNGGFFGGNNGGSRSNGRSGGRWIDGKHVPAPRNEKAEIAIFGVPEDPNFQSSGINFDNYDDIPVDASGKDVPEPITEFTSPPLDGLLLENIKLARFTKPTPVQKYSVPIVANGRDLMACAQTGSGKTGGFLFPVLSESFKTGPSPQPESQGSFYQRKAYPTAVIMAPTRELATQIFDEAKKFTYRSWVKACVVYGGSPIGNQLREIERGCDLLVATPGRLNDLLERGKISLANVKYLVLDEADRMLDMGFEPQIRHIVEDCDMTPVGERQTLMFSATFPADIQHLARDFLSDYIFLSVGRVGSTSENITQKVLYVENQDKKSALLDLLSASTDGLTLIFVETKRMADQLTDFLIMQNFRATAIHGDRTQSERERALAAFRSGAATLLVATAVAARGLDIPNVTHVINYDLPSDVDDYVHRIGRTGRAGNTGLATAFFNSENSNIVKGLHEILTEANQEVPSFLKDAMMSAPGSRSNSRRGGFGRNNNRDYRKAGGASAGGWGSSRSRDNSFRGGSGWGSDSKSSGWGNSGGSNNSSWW

Sequence of DDX3-WT (O00571 whole entry): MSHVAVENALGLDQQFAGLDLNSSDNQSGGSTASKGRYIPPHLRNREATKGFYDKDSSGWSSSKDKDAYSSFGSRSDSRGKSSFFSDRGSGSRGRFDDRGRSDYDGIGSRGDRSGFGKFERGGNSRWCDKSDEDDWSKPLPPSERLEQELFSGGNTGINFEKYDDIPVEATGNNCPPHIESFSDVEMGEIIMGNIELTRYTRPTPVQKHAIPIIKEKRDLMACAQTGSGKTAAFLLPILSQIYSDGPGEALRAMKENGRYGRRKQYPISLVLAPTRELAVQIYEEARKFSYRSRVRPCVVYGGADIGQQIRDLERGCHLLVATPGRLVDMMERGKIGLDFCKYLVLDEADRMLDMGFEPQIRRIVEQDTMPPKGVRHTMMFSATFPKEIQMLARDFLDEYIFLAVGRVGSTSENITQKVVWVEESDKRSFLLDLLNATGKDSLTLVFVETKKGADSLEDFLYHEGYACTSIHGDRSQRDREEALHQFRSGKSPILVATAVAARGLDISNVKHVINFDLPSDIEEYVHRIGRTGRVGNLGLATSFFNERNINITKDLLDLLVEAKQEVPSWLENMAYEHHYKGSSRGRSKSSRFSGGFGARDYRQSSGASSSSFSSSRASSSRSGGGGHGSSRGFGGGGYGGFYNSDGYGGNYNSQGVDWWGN

Turning to UGAGGUAGUAGGUUGUAUGGUU (ssRNA) [let-7c-5p], the binding result in series [1] was “no binding”; in series [2], “binds”.
Consider UCAUACUUUUCUUUUCUUUUCCAUC (ssRNA) [RNA01], for which the results for the binding result in series [3] and in series [4] were “no binding” and “binds”, respectively.
